This data set has as its system K4 kissing-loop RNA reporter. The data set can be described thus: apparent KD of K4 kissing-loop reporter; higher = weaker reporter binding. The settings on record: Eterna round: R107. On the procedure: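 RNA-MaP round R107: designed RNA switches with theophylline, tryptophan, arginine or FMN aptamers are transcribed on-chip within common flanks. They are titrated with a labelled K4 kissing-loop RNA reporter in RNA-MaP buffer (100 mM Tris pH 7.5, 80 mM KCl, 4 mM MgCl2), without ligand or with the indicated ligand. Median apparent KD per design.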

Where [1] appears, read: input ligand: theophylline 20 uM.
[2] abbreviates: input ligand: tryptophan 2.4 mM.
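Further: bound reporter read as fluorescence of individual clusters on recovered sequencing chips by microscopy, with normalized cluster intensities fitted with a binding model.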

“UGAUACCAGGCGGCCGCCACUCCUACAGGUCAAAGACCUGUAGAACUGGUUUUUUAGUGAUGUUGGAGGACCGGGCCUGGUAUCU [FiskerMod 30 - Jieux - Exclusion - Tryptophan B]”: the “apparent KD of K4 kissing-loop reporter” value runs as follows: (input ligand: FMN 200 uM) 698 nM; (input ligand: arginine 13.2 mM) 217 nM; (input ligand: none) 394 nM; under setting [1], 296 nM; under setting [2], 321 nM.
On to “UGAUAGGACAGAAGGAGCGGAAGUGAUGUUUCCAAAUGGAUAAGGUGUCAAAAGACACCCUUCCAGGUAGGUCGCUGUCCUAUCU [ArgBX 14 #Palindromic #SwitchBubble #StaticStem]”, for which the “apparent KD of K4 kissing-loop reporter” value turned out to be 111 nM (input ligand: FMN 200 uM); 112 nM (input ligand: arginine 13.2 mM); 130 nM (input ligand: none); 102 nM under setting [1]; 101 nM under setting [2].
On the same counts, the results for “UGAUAGGACAGAAGGAGCGGAGGUCGUCAAAGACGACCAAUACGUUAAAUAGGAGUGAUGUUCCAGGUAGGUCGCUGUCCUAUCU [ArgBX 30 #SwitchBubble #StaticStem]” are 123 nM, 119 nM, 123 nM, 129 nM and 106 nM.
For the sequence “UGAUUGCCAGUGAUGUUGGCAGUUUCUGAAGGAGCGCGUGAAAACGCAGGUAGGUCGCAGAUUAGUGCCAAUUGAUCGAAAGAUC [KL-XArg-A4]”, the “apparent KD of K4 kissing-loop reporter” value reads like this: (input ligand: FMN 200 uM) 208 nM; (input ligand: arginine 13.2 mM) 227 nM; (input ligand: none) 214 nM; under setting [1], 193 nM; under setting [2], 205 nM.
The corresponding values for “UGCAUGCUUGGAGUGAUGUUCCAAGAUGAUACCAGUGCUUUUUUGCACCCUUGGCAGCGUCUGAUUGCAUGCACGUCGAAAGACG” are 531 nM, 471 nM, 529 nM, 490 nM and 517 nM.
For “UGGAGUGCCUGGUCGUCACUAUGCCAACCACGAGGACCGGUACGGCCGCCACUCGUGAGGGAUAUUCAGAAAGUGAUGUUUUUUG [theeternabot_exclusion_KL_Trp_A_1]”, the “apparent KD of K4 kissing-loop reporter” value came to 590 nM (input ligand: FMN 200 uM); 370 nM (input ligand: arginine 13.2 mM); 529 nM (input ligand: none); 450 nM under setting [1]; 403 nM under setting [2].
The corresponding values for “UGGAGUUGACGAAAAGUCAACUCCUGAGAUACCAGUGACGAAAGUCACCCUUGGCAGCUCACUCCCAGUGAUGUUGGUUCAUAAG [#04 K4 Theophylline A Same State]” are 328 nM, 370 nM, 601 nM, 496 nM and 356 nM.
On to “UGGAGUUGACGAAAAGUCAACUCCUGAGAUACCAGUGACGAAAGUCACCCUUGGCAGCUCACUGCCAGUGAUGUUGGAACUAAAG [#02 K4 Theophylline A Same State]”, for which the “apparent KD of K4 kissing-loop reporter” value is 308 nM (input ligand: FMN 200 uM); 158 nM (input ligand: arginine 13.2 mM); 256 nM (input ligand: none); 452 nM under setting [1]; 216 nM under setting [2].
With “UGGAGUUGACGAAAAGUCAACUCCUGAGAUACCAGUGACGAAAGUCACCCUUGGCAGCUCACUGGCAGUGAUGUUGCAAAAUAAA [KL-SSTheo-A4]”, the “apparent KD of K4 kissing-loop reporter” value by setting is: (input ligand: FMN 200 uM) 135 nM; (input ligand: arginine 13.2 mM) 52.2 nM; (input ligand: none) 60 nM; under setting [1], 84.7 nM; under setting [2], 123 nM.
As for “UGGAGUUGACGAAAAGUCAACUCCUGAGAUACCAGUGACGAAAGUCACCCUUGGCAGCUCACUGGCAGUGAUGUUGCACGAUAAA [KL-SSTheo-A1]”, the “apparent KD of K4 kissing-loop reporter” value reads like this: (input ligand: FMN 200 uM) 123 nM; (input ligand: arginine 13.2 mM) 66.1 nM; (input ligand: none) 80 nM; under setting [1], 181 nM; under setting [2], 101 nM.
On to “UGGGAUGUUAAAGGAUAUAGCAAGUGAUAUAAGAAAGUGAGUGAUGUUUAUGUAGGUGAUGAUAUGUUAGAAGGUUAACAAAACG [abcdefgh]”, for which the “apparent KD of K4 kissing-loop reporter” value (input ligand: FMN 200 uM) was determined as 296 nM; the “apparent KD of K4 kissing-loop reporter” value (input ligand: arginine 13.2 mM) turned out to be 158 nM; the “apparent KD of K4 kissing-loop reporter” value (input ligand: none) was determined as 211 nM; the “apparent KD of K4 kissing-loop reporter” value under setting [1] came out at 185 nM; the “apparent KD of K4 kissing-loop reporter” value under setting [2] worked out at 218 nM.
In the case of “UGGUGCCAUUGGCGGGUAGAUAGUGGUGGCAAGGAUAUGUGAGCGAACAGAAGGUGCAUCAAGUUCAGUGAUGUUGGGCUCGAUU [theeternabot_sameState_KL_FMN_A_20]”, the “apparent KD of K4 kissing-loop reporter” value by setting is: (input ligand: FMN 200 uM) 264 nM; (input ligand: arginine 13.2 mM) 184 nM; (input ligand: none) 275 nM; under setting [1], 254 nM; under setting [2], 234 nM.
The corresponding values for “UGGUUAAGCAGUGAUGUUGCAAGUAAUGAUACCAGUUAAGAAGAGAACCCUUGGCAGCAUAAAGUGCGCUCUGAUGAGUGUGCUU [whbob_SS_Theo_A_w54]” are 197 nM, 218 nM, 240 nM, 239 nM and 179 nM.
As to “UGGUUUGGAAGUGAUGUUUCUAUAAGUGAUACCAGACAAAAGAAAGUCCCUUGGCAGCACAAUGAUGCCAAGGAAACGGCAUGAU [#15 K4 Theophylline A Same State]”, the “apparent KD of K4 kissing-loop reporter” value stood at 179 nM (input ligand: FMN 200 uM); 164 nM (input ligand: arginine 13.2 mM); 174 nM (input ligand: none); 157 nM under setting [1]; 150 nM under setting [2].
With “UGUAAGCGCGUAGAUACCAGCAAACGAGUGAUGUUCAAAAGAUUAAGGAAAAGAAAGUAAUGCCCUUGGCAGCUAAUCAUAAGCG [whbob_Ex_Theo_B_sa91]”, the “apparent KD of K4 kissing-loop reporter” value worked out at 304 nM (input ligand: FMN 200 uM); 316 nM (input ligand: arginine 13.2 mM); 449 nM (input ligand: none); 397 nM under setting [1]; 247 nM under setting [2].
On the same counts, the results for “UGUAAGCGCGUAGAUACCAGCAGACGAGUGAUGUUCAAGAGAUUAAGGAAAAGAAAGUAAUGCCCUUGGCAGCUAAUCAUAAGCG [whbob_Ex_Theo_B_sa93]” are 384 nM, 312 nM, 446 nM, 331 nM and 363 nM.
Take “UGUACCGAGUUAGGAUAUGUCGUCGAAAGACGAAAUGGAGUGAUGUUCCUUAAACUGCGAAAGCAGACAGAAGGGAUUUGGUACU [FmnBS 29 U11+U77]”: the “apparent KD of K4 kissing-loop reporter” value (input ligand: FMN 200 uM) worked out at 331 nM; the “apparent KD of K4 kissing-loop reporter” value (input ligand: arginine 13.2 mM) is 442 nM; the “apparent KD of K4 kissing-loop reporter” value (input ligand: none) was 412 nM; the “apparent KD of K4 kissing-loop reporter” value under setting [1] was found to be 510 nM; the “apparent KD of K4 kissing-loop reporter” value under setting [2] was 378 nM.
Turning to “UGUCAUGGAAACAUGAACGUUGAUGUUCGACGAGGACCGGUACGGCCGCCACUCGAGUAAUAGUCAGUGAUGUUGACUGGGCUAA [KL-SSTryp-A form1 sub2]”, the “apparent KD of K4 kissing-loop reporter” value was 146 nM (input ligand: FMN 200 uM); 216 nM (input ligand: arginine 13.2 mM); 219 nM (input ligand: none); 250 nM under setting [1]; 140 nM under setting [2].
Consider “UGUCAUUGGUCGGCCGCCACUUCGUGUGGAGUGAUGUUUUGUAGGUUGUGUUGAAAGGUAUGGUGAAGGACCGGGACCGAUGACU [FiskerMod 20 - Jieux - Same State - Tryptophan B]”, for which the “apparent KD of K4 kissing-loop reporter” value reads like this: (input ligand: FMN 200 uM) 651 nM; (input ligand: arginine 13.2 mM) 384 nM; (input ligand: none) 496 nM; under setting [1], 1080 nM; under setting [2], 525 nM.
On the same counts, the results for “UGUCAUUGGUCUGAUACCAGUACCCUUGGCAGCCAAGGAGUGAUGUUCCAAGGAUACCAGUACCCUUGGCAGCAGACCGAUGACU [TheoBS 25 #DoubleAptamer #SwitchBubble]” are 884 nM, 802 nM, 758 nM, 194 nM and 964 nM.
Regarding “UGUCAUUGGUCUGAUACCAGUCCCUUGGCAGCCAAAUGGAGUGAUGUUCCAAGGAUACCAGACCCUUGGCAGCAGACCGAUGACU [TheoBS 26 #DoubleAptamer #SwitchBubble]”, the “apparent KD of K4 kissing-loop reporter” value was 556 nM (input ligand: FMN 200 uM); 397 nM (input ligand: arginine 13.2 mM); 552 nM (input ligand: none); 377 nM under setting [1]; 499 nM under setting [2].

These data come from the supplement of paper PMC9170038.
